Test results from article PMC8096331, “Completion of the gut microbial epi-bile acid pathway” (Gut Microbes, 2021).

B1: Cp12β-HSDH (Clostridium paraputrificum) (protein)
chain: MKELNEKVAIITGAGQGIGKGIALHLGKRGVKVVCVGRRLDPIVQTVKEVEEAGGQGFAITCDVGNREDVKKVVKATVEKYGTVDVVVNNAQSLPGSAKVEDTTYEQMLTAWQSGTIGSLNMMQECFPYMKDQNEGRIINFASATGMFGYAGQLAYGCNKESIRGLTKIAAKEWAQYNIIVNCVLPGAESPAAKVWAEKFPEKYKEIMEAQPMKRFGDGEDDIGRVIAFLAGPDSKYYTGQCLLVDGGYSIAP
notes: full length, N-terminal His6 tag (pET-28a(+)), E. coli BL21-CodonPlus(DE3) RIPL, TALON purified

Assays:
[1] = molecular target: Clostridium paraputrificum ATCC 25780 bile acid 12β-HSDH (WP_027099077.1) (Clostridium paraputrificum ATCC 25780); assay: SEC; Superose 6 10/300 GL analytical column, 4°C, 50 mM Tris-Cl, 150 mM NaCl, pH 7.5; purified protein loaded at 10 mg/mL, 0.3 ml/min; native mass estimated against Bio-Rad gel filtration standards
purified protein [2] = substrate: NC(=O)C1=CN([C@@H]2O[C@H](COP(=O)(O)OP(=O)(O)OC[C@H]3O[C@@H](n4cnc5c(N)ncnc54)[C@H](OP(=O)(O)O)[C@@H]3O)[C@@H](O)[C@H]2O)C=CC1; assay: purified protein; details: reductive direction, 80 µM 12-oxoLCA, 10 nM enzyme, sodium phosphate pH 7.0, varied: cofactor
purified protein [3] = substrate: NC(=O)c1ccc[n+]([C@@H]2O[C@H](COP(=O)(O)OP(=O)(O)OC[C@H]3O[C@@H](n4cnc5c(N)ncnc54)[C@H](OP(=O)(O)O)[C@@H]3O)[C@@H](O)[C@H]2O)c1; assay: purified protein; type: biochemical, Clostridium paraputrificum; details: oxidative direction; 100 µM epiDCA; 10 nM enzyme; sodium phosphate pH 7.5; pH 7.5; varied: cofactor
purified protein [4] = substrate: [H][C@]12CC[C@]3([H])[C@]([H])(CC(=O)[C@@]4(C)[C@@]3([H])CC[C@]4([H])[C@H](C)CCC(=O)O)[C@@]1(C)CC[C@@H](O)C2; assay: purified protein; type: biochemical, Clostridium paraputrificum; details: reductive direction; 150 µM NADPH; 10 nM enzyme; sodium phosphate pH 7.0; pH 7.0
purified protein [5] = substrate: C[C@H](CCC(=O)O)[C@H]1CC[C@H]2[C@@H]3CC[C@@H]4C[C@H](O)CC[C@]4(C)[C@H]3C[C@@H](O)[C@]12C; assay: purified protein; type: biochemical, Clostridium paraputrificum; details: oxidative direction; 300 µM NADP+; 10 nM enzyme; sodium phosphate pH 7.5; pH 7.5

stoichiometry N [1]	Molecule	Km (purified protein [2]) [µM]	Vmax (purified protein [2]) [µmol/min/mg]	kcat (purified protein [2]) [s⁻¹]	kcat/Km (purified protein [2]) [M⁻¹ s⁻¹]	Km (purified protein [3]) [µM]	Vmax (purified protein [3]) [µmol/min/mg]	kcat (purified protein [3]) [s⁻¹]	kcat/Km (purified protein [3]) [M⁻¹ s⁻¹]	Km (purified protein [4]) [µM]	Vmax (purified protein [4]) [µmol/min/mg]	kcat (purified protein [4]) [s⁻¹]	kcat/Km (purified protein [4]) [M⁻¹ s⁻¹]	Km (purified protein [5]) [µM]	Vmax (purified protein [5]) [µmol/min/mg]	kcat (purified protein [5]) [s⁻¹]	kcat/Km (purified protein [5]) [M⁻¹ s⁻¹]
2	Clostridium paraputrificum ATCC 25780 bile acid 12β-HSDH (WP_027099077.1) (enzyme)																
	B1	29.16 ± 0.42	61.8	28.1	970000	36.84 ± 0.55	97.9	44.6 ± 3.77	1.21e+06 ± 120000	18.76 ± 0.40	58.4	26.6 ± 1.62	1.42e+06 ± 110000	44.43 ± 1.13	130	59.3 ± 5.47	1.34e+06 ± 150000
